Changes are numbered by the printed parent chain.
T1: IRF4-C99R DBD;JUNB DBD;BATF DBD (human;human;human, UniProt Q15306;P17275;Q16520 20-139;269-329;28-87, C99R||)
T1 sequence 1: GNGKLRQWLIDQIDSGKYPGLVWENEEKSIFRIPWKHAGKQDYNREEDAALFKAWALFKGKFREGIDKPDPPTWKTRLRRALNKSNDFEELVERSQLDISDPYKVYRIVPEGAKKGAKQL
T1 sequence 2: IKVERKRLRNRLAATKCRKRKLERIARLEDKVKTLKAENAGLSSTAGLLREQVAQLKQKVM
T1 sequence 3: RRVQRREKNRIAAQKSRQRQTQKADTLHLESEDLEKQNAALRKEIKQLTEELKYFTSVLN

T2: IRF4-WT DBD;JUNB DBD;BATF DBD (human;human;human, UniProt Q15306;P17275;Q16520 20-139;269-329;28-87, ||)
T2 sequence 1: T1 sequence 1 with R80C
T2 sequence 2: T1 sequence 2
T2 sequence 3: T1 sequence 3

B1: AICE2 (Bcl11b) (dsDNA)
DNA 1: AGCTTAGTGCAGAAATGAGTCAGAGATCAAAGAAG
DNA 2: AGCTCTTCTTTGATCTCTGACTCATTTCTGCACTA
B2: AICE2FLIP (AICE2 5'TTTC) (dsDNA)
DNA 1: B1 DNA 1 with G12T, A13T, A14T, A15C
DNA 2: B1 DNA 2 with T25G, T26A, T27A, C28A
B3: AICE2FLIP short IRFmut (dsDNA)
DNA 1: AGTGCATGTATGAGTCAGAGATC
DNA 2: AGGATCTCTGACTCATACATGCA
B4: AICE2 (Bcl11b) short, IRF motif tAcA (dsDNA)
DNA 1: AGTGCATACATGAGTCAGAGATC
DNA 2: AGGATCTCTGACTCATGTATGCA

Assays:
[1] = target: T1, IRF4-C99R DBD;JUNB DBD;BATF DBD; test: EMSA; short or long probe not certain; EMSA: 10 mM HEPES pH 7.9, 70 mM KCl, 5 mM DTT, 1 mM EDTA, 2.5 mM MgCl2, 4% Ficoll, 0.5 mg/ml BSA, 0.1 ug/ml poly(dI-dC); 3-5 ug nuclear extract; temperature not stated; conditions: protein: recombinant;recombinant;recombinant; copies: 1;1;1; label: 32P-dCTP Klenow end label; 5' overhang 4 nt before Klenow labeling
[2] = target: T2, IRF4-WT DBD;JUNB DBD;BATF DBD; test: as above; conditions: protein: recombinant;recombinant;recombinant; copies: 1;1;1; label: 32P-dCTP Klenow end label; 5' overhang 4 nt before Klenow labeling
[3] = target: T1, IRF4-C99R DBD;JUNB DBD;BATF DBD; test: EMSA; IRF4 composite complex abolished; EMSA: 10 mM HEPES pH 7.9, 70 mM KCl, 5 mM DTT, 1 mM EDTA, 2.5 mM MgCl2, 4% Ficoll, 0.5 mg/ml BSA, 0.1 ug/ml poly(dI-dC); 3-5 ug nuclear extract; temperature not stated; conditions: protein: recombinant;recombinant;recombinant; copies: 1;1;1; label: 32P-dCTP Klenow end label; 5' overhang 2 nt before Klenow labeling

Binder | binding result [1] | binding result [2] | binding result [3]
B1 | binds | – | –
B2 | binds | no binding | –
B3 | – | – | no binding
B4 | – | – | no binding

— article PMC10630337, “Transcriptional reprogramming by mutated IRF4 in lymphoma”
